# Reference: the NTF2 design screens of Basanta et al. (2020)
# Test: protease stability score; higher = more stable; yeast display proteolysis, trypsin and chymotrypsin;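 note: relative to predicted unfolded state with 0 unfolded-like and 1 meaning tenfold more protease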
row,Sequence,protease stability score
1,DDEERIWRELLEDLLKALKTGDEHRIQDLLDPHVRLEIGDKEFHGREEVTEWFRRLMEKIKGAVFHIHIHDFRIQGDKLLADTRLIIHIGDKHEESETEMIVLKVNGRWLIDEIRVK,2.59
2,DEEQQDLIEVVNRYLRAVLTGDEDDLRELLDPHYRIRIGDKEFVGWKEFIRHVREARYTIHRWSVDSVEIIGDKVILYGELDGIEKVNGKTIKKRFEVIFYINKIDGRWHFKHIEFH,2.29
3,SEEFEIYKRASELLAHLMLTGDFDTMNKLMDPNVRLDVDGVDFHGRELVNRKFQHMRIEHTHIERVIWIGDKVHVHTTMTGNIDGRRDERKMEIVSHKVDGRWHVHSVIIL,1.12
4,SEDEEKATEFFRLLVDNWLTGDEENVERLLDPRVRVLVGDKMIHGRHLSARLESEFLKRIPNLRIRFHLHDVRTYGDKAHLDIIIDIHFNGVDIHIESELVVVKIDGRWLFKEERRK,0.276
5,DEQEESSRIIHKLIEHVAETGDWREWRKLLDPNTRLDVNGKEFHGWEKLLEHLEEHLDLLGVTKFTLRIQIRSMETQGNYVFIVGITHIHQGDKEIHRFTELIVLKINGKWLMKEIRFR,1.37
6,TEDERMVSEHLKQWLHSLRTGDEDTIQRLFDPHTRIIFEGHEFIGMEDMEEWLTKFHEEARSHKLIIKRIHIIGDKVHVEGVLDGEYNGRRHELKVIIIALKINGRWVMHQIEIR,1.97
7,SELEHEMVEFFRLLVHAWRTGNEELAHRLIDPNVRLDVNGRHFHGWEEFFRFYKEIRLKDADLDSFRIIDGRVELDGTMHMEQGDKSRSVESHVLLEKIDGRWIVRSVRFH,1.44
8,DEEEEDIDFLIHLLVKTIKTGDEHIFRRLMDPHVRMHAEGRELHGREVVVERWAKIMRELRITHIEVTHKDVVDGQVELHMRIKFRVGDKEKETRVELHAEKIDGRWVIRSIHIL,1.75
9,DEEKHEFELLLRLWLRTMETGDEQMSRRLVDPNVRIEIGDKDIHGREEMSRIVRHWRVHDYDIKDSTVQGDKAHLDGHIEGTIDGKTTRFHIHLNLEKINGRWLIKEVVVE,2.19
10,DEENNIVKLLFHLYVRAIETGDWKTLEKLADPNYRTIFDGKDLHGREHYMRWVRELRVEDIKLNHIHMQGDKLSIDGEIDVRVGDKETRFEVHIIAEKINGRWILRSSIID,1.82
11,SSEEHDAKNMHKMFREAMMTGDEDLLKNLLDPHVRLTFNGKDFHGWDRVYELFRKRLEHLGITWKDWDLHIIETQGDKVELNSTLHGRVGDKHVDDHTTLFIRKIDGQWVLTEVRIG,1.46
12,NEDERLIKEFWRLLQEALKTGNWEMIAELIDPHVRIDIGDKQIHGREEFIKLVDHIRFDDVKTELKTVHVFDGRVEVRGHLTVHKTFNGQKIDERTDVNLDIEKINGVWYMTYVRIE,2.06
13,DKVEDDLREFARLFVEYMETGDEDKVSKLMDPSMRIEIHINGKDIKYHGREELNRWRSEEMKRVDHEKWHHKHIRVIGDKVDIDFRRVEHVGDKHLVFQVHIELFVINGKLHTVIIRIE,1.53
14,REDERISQIAIEIVEHLIRTGDERVESELADPHMKLRINGVEIHGRERVHDWIHRFVTEFGIDRVEARVHDSHVVNGRIYNDTESHINGKNVKMRWIAIKYNGRWIQTMITFE,1.3
15,SELDHLTKHAMELWLRLLETGDEHSEHRLADPNVRLDVNGKELHGMEEILEHLSRLGIKVFRVKDTELVGNKLHLIGELEFDGKRVETHVIAWKINGRWHLHRREIR,1.57
16,SEEEEETEEVADLHLETLKTGNEDLLEDLLDPNVRVIVNGKHHIGRHFLLKWVTEFGIKHFELKRREIDIQGEKADIHIQGNMYFNGRTVRAHIHQEVTKFDGRWFNHRVEIEFK,1.84
17,HEDDHQAERITHITMHAILTGDWRRMEELLDPHYRIEFENHENIGRERVNKVLIDLGIRNEIEIKRIRFQGDFVEIDGKLKIDVGDKHIEIKVRLFYVKINGRWFHHHVDLR,0.835
18,DEKTKEVEHLTEYLREVWETGDFESLHEMMDPHVRVDIGDKHVHGREAVAHHFRKHLENWGVTRFRIEFHVRDVRDINGVVHLDTELRILFDGVLITMRTRFIIEKINGRWVFREVIVR,2.63
19,SEEEKEVKEHLKIIHDVIRTGNEHDIKELMDPNMLLVFNGQKHIGRDHWEELLKKLGADHVHLHIRSFTIINGQARLETEVEWRAENRTIRRETEIVTDKINGRWIIHTIIFR,1.5
20,DEDFEHARRVLELFIESVETGDENSYRRLADPNTRYHAENHEHHGREYYIRLLEELRMSVHDLKIESWRLVDGQLRLNTRTDLHVNVNGQRIRLDTETHIVLNKINGRWYIHIIYIG,1.27
21,SEDEEWSRLIVEEFIKVLDTGDERLTSEMLDPNARIVIGDKHIHGRESLVELIHRIKNIKFDFKHVNTQGDKVEVDGTIVFNGRTTTVLIRMKKVNGRWFVTEIHIE,1.9
22,DEREEASERMAELIVHLFETGDEDLIRRMVDPHVRWEFNGREIMGRELTTHVLHEIYHRVKNIRYRIESLDIQGDWLLVNSRLHVNGRTIEIHLIVEKVNGRWTLRELIVKVD,1.65
23,SEEHELAESMAEEVLRSFLTGDEDTLHELFDPHVRVNYNGKVFHGREKLIKILNELRWDHTTVKRIEIRYYGDKVEVVLHVEIHFEINGQRISHRVDIIIIAEKVNGRWRVRDFIYIEK,1.35
24,SEHEERMRRYIEIFIHNLITGDEHMINRMADPSTIVIINGVRLWGREEFSKWVRRERERIDHIEMRIEHLDVQGDKATVDVRVEEHVGDKSEERSLIIRLIVVNGRSHSMHFEVR,1.59
25,SEHKELVEHITKLSWELLKTGDEEILLHLADPDMKVEVGDKEMHGREEWARFLIETLRRVKNLRVDLHRVHIQGEKAHVDGTIFIDGVEFTDQLNFVVINGRIKHINIIDR,1.46

row,Sequence,protease stability score
1,DEMREEVETILKLMEEWEKTGDFETILTYLDPNARLHENINGRELHSHGREFIHWAYEFFKNLRIETVQEDEVHIFENHFQIRVTLKGTINGRHYIFHRIIIINAIDGRIRHEVILYK,1.53
2,TEDLHQYHEFLEEMIRWLRTGDWEAKHRNADPNVRLDFNGVDFHGMEIVAKIEMELRRRVDHIELEVKRSEIVNGRVHIDQVYHIEYNGRSYEVKSELIVKKVNGKWLIKEERVR,0.322
3,DEERRHFEHFFHLWEQIMVTGDEDMARMLADPNVRIQVGDKKYHGREHFAELIKHLRVERIRIHTFRLYDGRIELIIHVHGNVNGQRDEFETRSHTIKVDGVWVIHSFHID,1.6
4,EEEEKHEREMAKIMLDVLRTGDEELFERMFDPNTRYEVGDKILHGRHEVLRNWLEMIKKFKNARFITRHVHVFNGVLHINIEVRFDGRTHEYHIDLFFWDGRFKEVRVESH,1.54
5,SEDEHFLERFLKLFLHAYETGDEDFIKHLLDPHTRIDIHIGDKTHHLHGRDEMSKLHRKLGAKVSRHRDSNMDIQGDKATSHIHGVEYVNGREIRIDIVLIMRKVDGRWVIESMIFIFH,1.25
6,DEDEEKKDEARRLWEENLMTGDEETLFRLADPHVRTVINGVEFHGREEMLKAIRWLRHDLGAKHIDSIHIDSVTIQGDFVIVHGHLRFSIGDKRTDSEVHLHVLKVDGKWYVHEVNIN,-0.183
7,DEHKEILREYAKKFLNDVMTGDEDEIEHLADPHARVEIGDKDIHGWEQWIKHLSRTWKELRIEDYRIRSIELVNGVVHLDTHLHIRIGDKRFDTQVEIHLVVINGKVKSVRVDIR,1.12
8,DEIEQIMEYLAHVHIEFIITGDEDTLEHLADPHVKIEVNGQSLVGWKHWSRFLKKLGWKRDMRVRHIHAQGDKIHVDGHLVNDFDGREFRYKTHLEIKVVDGKLKVIRIDQE,1.41
9,DEFHELARHALKLFKDTMDTGDEHTLEHLVDPNVRLLVDGQEIHGREAMEEFWRRVPNLRLYFHDVRVIGDKIIVDGKIEYGDKEIDSRIYLRKINGRWRFESVELR,1.4
10,REQEHEAKVAVDEWREDMETGDEHRLRELMDPDVRNIVGDKELHGREAVEFLITQIDHVKHIHVRHLDIQGDYIRFEGEINIHVNGRDRTLDVELYFIKINGRWHIHKLRFD,1.66
11,SEEEHIVKEAVRLWYEAVHTGDPHTLNEFLDPHMRIEIGDKEKHGRHELKKLTEHIRIERLEFTLTHMKIVGNKAHVYGHLRFEGDWDGQRIHTEVETRLHIIKYDGKWMTEEVHIR,1.97
12,SDWDKITKEMAELILTAEETGDFKTLWRLMDPNVKLNIGDKTHHGREEYLKWMHEHLKKVPNLTLKLRDVHVQGDKVHLRVEVEIGDKTIDSEIHLEIINGRIEHLRIIDL,0.957
13,DEKQEFIERIAKELLDSWLTGDEEHLRNMMDPHVRTDVNGREFHGREETIKAMQILGVDHLEIKDYRVINGRIHANSRMWIGDKQIETHLILRVVNGRVKEIKIEIR,1.97
14,DDEDEHWETLARHFVDNYLTGDWKRLWEMLDPNARLNVNGKEYHGREVIIRVLRKELEDLGVDVVDVEDIRVYGNKVDFHMTVRVGDKERRLEIDVHIVDGRIRKIIIRID,2.2
15,DEDTEKHKELLEMLVVAYLTGDFRHWWDLADPHVKLDQGDKHLHGREDMVEWIRRFIKKFKNVQVKIRHIHHQGNKDNIDGILDVDGREYHVEIIIVLVDGVIRSEEIRVK,1.87
16,REEEEYRHHVLRRWLEIWETGDEEAEAKNVDPNARMHVNGVDLHGRETIIHFLEEYMRKVKGVQERNDKVHLQGEFTHLTGRVLINGRWKEVTIQLLIINGRHHYLRIIIE,0.898
17,DEHEEDMERFLRELLDHWRTGDEDVIRELMDPHVKVDINGKIHHGREEAVHFLIEMRFRHFHVHDLRVQGEKADVDGRTHMEYNGRTVDQRITIHLVKIDGKWREKSITLE,1.24
18,DELDHEIRHVLHIIHHLLLTGDEEIFEEMADPDPRLDLVYGDKKIHVHGWKNILDMLKRLLDHWRIRHVEIKRITTQGNKAHLDTRSNLIINGRELIVIIELNVVTFNGVMKDMRIKIV,1.65
19,DEEKHSAEHFMRLWIESFETGDEESIKRLMDPHAKSDFNGVEMHGREYLEVIKREMRVKSSRLHVKHIDVIDGVVIIEGRMILDGEINGVRTRLESDVRFVVEKFDGRWILRSSSIK,1.31
20,SELERLIMEMLHLLIELWLTGDEETLSKLIDPNTRLIVIQGDKHIIVHGRELVLHIMRRIREEIRFEDSRIRSMDAQGNKASINEEMHFRIGDKEVRFEREVEVWVIDGKLHSLVIRIK,0.871
21,SEIEKDAKDALKWFVDTTRTGDEDLWLRLLDPHVRVIIGDKEYHGREESEKLIRHLSDLFGVDKVEVILNLERIHIQGNKIDVKGKLEVRQGNYTDDREIEMVMIKVNGRWFIKYEVIK,1.18
22,DHEDERSRELTQILWKAWLTGDEELFHRLHDPDVRTEFDGREYHGWERFSELLNQFKNVRIRLRDYRIQGEKSKLDTQINIGDKRTRFHIEIYIIDGRLKNMRFEIE,0.868
23,EEDKETAEHFSRVLHENWETGDEHRELLYMDPNVRTDFNGVDAVGREEFHKLVHHLLTHIRMRSLHIRKVHIQGEYLHIEGELNTEVNGREVVLEMRITSLKINGRWITHSMHFR,0.304
24,SEDEESFRHIIELMKHSLKTGDWRHLEKLLDPNARVHINGKESHGREEAVKAFRHTWEMLGIDHIEFKDEKIRMQGNKVHVHIDGVINVNGVELKSHFEHHIVKFNGRWHTEKLVIQLD,1.93
25,DEEEEHAEHMLRLWFHILHTGDWEDLVRLIDPNARLRVGDKTFHGMERLVRRHLEHKRRLGLDNFDFQVDNFEVYGDKIDIDVTENINGREYKVIIHIIVINGRVKNMHIKIN,0.925
